Measured values taken from patent US20180036445A1.

Legend:
[1] = biological target: Fab/Mab (sample loaded in Example 3); assay: 10% breakthrough dynamic binding capacity, ligand on agarose column, after 24 h in 0.1 M peracetic acid
[2] = biological target: Fab/Mab (sample loaded in Example 3); assay: 10% breakthrough dynamic binding capacity, ligand on agarose column, residence time 6 min, no SIP
[3] = biological target: Fab/Mab (sample loaded in Example 3); assay: difference of dynamic binding capacity, after SIP minus control without SIP
[4] = biological target: Fab/Mab (sample loaded in Example 3); assay: 10% breakthrough dynamic binding capacity, MabSelect Xtra column, residence time 6 min, no SIP
[5] = biological target: Fab/Mab (sample loaded in Example 3); assay: 10% breakthrough dynamic binding capacity, MabSelect column, after 24 h in 0.1 M peracetic acid
[6] = biological target: Fab/Mab (sample loaded in Example 3); assay: 10% breakthrough dynamic binding capacity, MabSelect Xtra column, after 24 h in 0.1 M peracetic acid
[7] = biological target: Fab/Mab (sample loaded in Example 3); assay: difference of dynamic binding capacity, after SIP minus control without SIP, MabSelect Xtra
[8] = biological target: Fab/Mab (sample loaded in Example 3); assay: difference of dynamic binding capacity, after SIP minus control without SIP, MabSelect
[9] = biological target: Fab/Mab (sample loaded in Example 3); assay: 10% breakthrough dynamic binding capacity, MabSelect column, residence time 6 min, no SIP
[10] = biological target: Fab (sample of Example 4); assay: static binding capacity in filter plate, after 24 h in 500 mM peracetic acid, 90 min incubation with Fab, relative to PBS control
[11] = biological target: Fab (sample of Example 4); assay: static binding capacity in filter plate, after 4 h in 100 mM peracetic acid, 90 min incubation with Fab, relative to PBS control
[12] = biological target: Fab (sample of Example 4); assay: static binding capacity in filter plate, after 24 h in 100 mM peracetic acid, 10 min incubation with Fab, relative to PBS control
[13] = biological target: Fab (sample of Example 4); assay: static binding capacity in filter plate, after 4 h in 100 mM peracetic acid, 10 min incubation with Fab, relative to PBS control
[14] = biological target: Fab (sample of Example 4); assay: static binding capacity in filter plate, after 24 h in 500 mM peracetic acid, 10 min incubation with Fab, relative to PBS control
[15] = biological target: Fab (sample of Example 4); assay: static binding capacity in filter plate, after 24 h in 5% H2O2, 10 min incubation with Fab, relative to PBS control
[16] = biological target: Fab (sample of Example 4); assay: static binding capacity in filter plate, after 4 h in 500 mM peracetic acid, 90 min incubation with Fab, relative to PBS control
[17] = biological target: Fab (sample of Example 4); assay: static binding capacity in filter plate, after 4 h in 5% H2O2, 90 min incubation with Fab, relative to PBS control
[18] = biological target: Fab/Mab (sample loaded in Example 3); assay: 10% breakthrough dynamic binding capacity, ligand on agarose column, after 24 h in 0.1 M peracetic acid (ligand degraded by the treatment)

Sequence of recombinant Protein L (rPrL) (chain): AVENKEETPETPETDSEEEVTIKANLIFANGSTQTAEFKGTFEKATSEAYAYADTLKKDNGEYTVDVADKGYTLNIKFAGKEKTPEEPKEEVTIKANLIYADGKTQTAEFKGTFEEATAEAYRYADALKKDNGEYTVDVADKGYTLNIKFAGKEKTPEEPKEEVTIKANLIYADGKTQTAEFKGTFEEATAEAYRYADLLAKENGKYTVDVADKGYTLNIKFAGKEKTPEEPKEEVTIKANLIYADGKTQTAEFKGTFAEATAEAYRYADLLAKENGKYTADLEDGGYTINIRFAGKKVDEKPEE

MabSelect SuRe LX ligand (multimer of Protein Z variant with substituted asparagines) (designed binder)
DBC after SIP [1]: 63 g/L | DBC control, no SIP [2]: 63 g/L | ΔDBC [3]: 0 g/L

MabSelect SuRe ligand (multimer of Protein Z variant with substituted asparagines) (designed binder)
DBC after SIP [1]: 51 g/L | DBC control, no SIP [2]: 50 g/L | ΔDBC [3]: 1 g/L

recombinant Protein A (rPrA) (from UniProt P38507 42-327)
DBC control, no SIP [4]: 59 g/L | DBC after SIP [5]: 51 g/L | DBC after SIP [6]: 60 g/L | ΔDBC [7]: 1 g/L | ΔDBC [8]: -1 g/L | DBC control, no SIP [9]: 52 g/L

recombinant Protein L (rPrL)
Relative remaining SBC (%) [10]: 102% | Relative remaining SBC (%) [11]: 101% | Relative remaining SBC (%) [12]: 107% | DBC after SIP [1]: 29 g/L | Relative remaining SBC (%) [13]: 109% | Relative remaining SBC (%) [14]: 97% | DBC control, no SIP [2]: 30 g/L | Relative remaining SBC (%) [15]: 102% | ΔDBC [3]: -1 g/L | Relative remaining SBC (%) [16]: 103% | Relative remaining SBC (%) [17]: 102%

single-chain camelid antibody against IgG kappa chains (KappaSelect ligand) (VHH)
DBC control, no SIP [2]: 20 g/L | DBC after SIP [18]: 0 g/L | ΔDBC [3]: -20 g/L
